In patent US20260242478A1 (published 2026):
Where no end group is shown, it is not given here.

Experiments:
PSMA Fab (006 PSMA Fab) [1] = biological target: T1, PSMA Fab (006 PSMA Fab) (biotinylated (site not stated)); assay: clonal phage ELISA on biotinylated PSMA Fab captured on neutravidin plate, blocking buffer alone; anti-M13 HRP detection
T1 construct: also called Anti-PSMA Fab; anti-PSMA Fab

PSMA Fab (006 PSMA Fab) [2] = biological target: T2, PSMA Fab (006 PSMA Fab); assay: phage ELISA; biotinylated PSMA Fab on neutravidin plate, clonal phage supernatant, anti-M13 HRP detection;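 further: wells preincubated with PSMA antigen in blocking buffer or with blocking buffer only before clonal phage were added for a short incubation, then bound phage detected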
T2 construct: also called Anti-PSMA Fab; anti-PSMA Fab
Protocol: (§1) Clonal phage were harvested as crude supernatants and screened via standard ELISAs. […] Prior to the addition of clonal phage. wells were incubated with blocking buffer and PSMA antigen or blocking buffer alone. Without washing or aspirating, clonal phage supernatants were then added to the wells and incubated for a short time. Wells were then washed followed by detection of bound phage using a horse radish conjugated anti-M13 antibody.

PSMA Fab (006 PSMA Fab) [3] = biological target: T2, PSMA Fab (006 PSMA Fab); assay: phage ELISA; biotinylated PSMA Fab on neutravidin plate pre-incubated with PSMA antigen as competitor, anti-M13 HRP detection;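 further: crude clonal phage supernatants tested, compared against control wells pre-incubated with blocking buffer only, without PSMA antigen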
Protocol: as §1

PSMA Fab [4] = biological target: T3, PSMA Fab; assay: clonal phage ELISA; biotinylated PSMA Fab on neutravidin plate, blocking buffer alone; anti-M13 HRP detection;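 further: crude clonal phage supernatants added without washing to wells pretreated with blocking buffer with or without PSMA antigen, short incubation, then washed before detecting bound phage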
T3 construct: also called Anti-PSMA Fab; 006 PSMA Fab
Protocol: as §1

PSMA Fab [5] = biological target: T3, PSMA Fab; assay: clonal phage ELISA; biotinylated PSMA Fab on neutravidin plate, wells pre-incubated with PSMA antigen as competitor; anti-M13 HRP detection;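 further: crude clonal phage supernatants added to antigen-treated wells without a wash, incubated briefly, then bound phage read out via horse radish–conjugated anti-M13 antibody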
Protocol: as §1

Anti-PSMA Fab [6] = biological target: T4, Anti-PSMA Fab; assay: clonal phage ELISA on biotinylated PSMA Fab captured on neutravidin plates, anti-M13-HRP detection;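 further: crude clonal phage supernatants added to wells preincubated with PSMA antigen or with blocking buffer only (no wash between), briefly incubated, then washed before detecting bound phage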
T4 construct: also called 006 PSMA Fab
Protocol: as §1

Anti-PSMA Fab [7] = biological target: T4, Anti-PSMA Fab; assay: clonal phage ELISA on captured PSMA Fab, wells pre-incubated with PSMA antigen as competitor, anti-M13-HRP detection;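 further: crude clonal phage supernatants added without washing after the PSMA preincubation, comparison wells received blocking buffer alone without PSMA, bound phage read after washing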
Protocol: as §1

B1: Phage-3764 (peptide, not shown: large carriers)
peptide: ENRMCIPEWMCQAS
notes: Clonal phage of the peptide-180 library, tested as crude phage supernatant
Phage binding ELISA signal, Anti-PSMA Fab (PSMA Fab (006 PSMA Fab) [1]): 1.36

B2: Phage-3759 (peptide, not shown: large carriers)
peptide: DVGMCRPKWMCDGF
notes: as for B1
Phage binding ELISA signal, Anti-PSMA Fab (PSMA Fab (006 PSMA Fab) [1]): 1.36

VQLMCMPEWMCSGL [Phage-3775]
Phage binding ELISA signal, Anti-PSMA Fab (PSMA Fab (006 PSMA Fab) [2]): 1.33 | Phage binding ELISA signal, Anti-PSMA Fab in presence of PSMA (PSMA Fab (006 PSMA Fab) [3]): 0.0599

TIMYCKPTWMCTGF [Phage-3757]
Phage binding ELISA signal, Anti-PSMA Fab (PSMA Fab [4]): 1.37 | Phage binding ELISA signal, Anti-PSMA Fab with PSMA antigen (PSMA Fab [5]): 0.0727

B3: Phage-3762 (peptide, not shown: large carriers)
peptide: LVHLCKPPWMCHGF
notes: as for B1
Phage binding ELISA signal, Anti-PSMA Fab (PSMA Fab (006 PSMA Fab) [1]): 1.36

B4: Phage-3788 (peptide)
peptide: MLRSCVPPWMCAGF
modifications: cysteine pairing not given here; also: displayed on phage as fusion to pIII, junction not given here
notes: Clone of the Peptide-180 optimisation library, tested as clonal phage supernatant
Phage binding ELISA signal, Anti-PSMA Fab (Anti-PSMA Fab [6]): 1.32 | Phage binding ELISA signal, Anti-PSMA Fab with PSMA antigen (Anti-PSMA Fab [7]): 0.0821

B5: Phage-3760 (peptide, not shown: large carriers)
peptide: VLPSCIPSWMCNGF
notes: as for B1
Phage binding ELISA signal, Anti-PSMA Fab (PSMA Fab (006 PSMA Fab) [1]): 1.36

VPALCVPNWMCSGL [Phage-3749]
Phage binding ELISA signal, Anti-PSMA Fab (PSMA Fab [4]): 1.38 | Phage binding ELISA signal, Anti-PSMA Fab with PSMA antigen (PSMA Fab [5]): 0.0565

B6: Phage-3787 (peptide)
peptide: LKVECRPLWMCEGF
notes: as for B4
Phage binding ELISA signal, Anti-PSMA Fab (Anti-PSMA Fab [6]): 1.32 | Phage binding ELISA signal, Anti-PSMA Fab with PSMA antigen (Anti-PSMA Fab [7]): 0.075

NSSLCIPSWMCSGF [Phage-3752]
Phage binding ELISA signal, Anti-PSMA Fab (PSMA Fab [4]): 1.37 | Phage binding ELISA signal, Anti-PSMA Fab with PSMA antigen (PSMA Fab [5]): 0.0738

B7: Phage-3789 (peptide)
peptide: EQVLCRPEWMCIGF
notes: as for B4
Phage binding ELISA signal, Anti-PSMA Fab (Anti-PSMA Fab [6]): 1.32 | Phage binding ELISA signal, Anti-PSMA Fab with PSMA antigen (Anti-PSMA Fab [7]): 0.0856

B8: Phage-3792 (peptide)
peptide: HMQYCIPQWMCHGF
notes: as for B4
Phage binding ELISA signal, Anti-PSMA Fab (Anti-PSMA Fab [6]): 1.32 | Phage binding ELISA signal, Anti-PSMA Fab with PSMA antigen (Anti-PSMA Fab [7]): 0.0825

EYQRCIPEWMCSGF [Phage-3779]
Phage binding ELISA signal, Anti-PSMA Fab (PSMA Fab (006 PSMA Fab) [2]): 1.33 | Phage binding ELISA signal, Anti-PSMA Fab in presence of PSMA (PSMA Fab (006 PSMA Fab) [3]): 0.0735

VHRMCEPKWMCEGF [Phage-3773]
Phage binding ELISA signal, Anti-PSMA Fab (PSMA Fab (006 PSMA Fab) [2]): 1.33 | Phage binding ELISA signal, Anti-PSMA Fab in presence of PSMA (PSMA Fab (006 PSMA Fab) [3]): 0.0695

WEGFCVPTWMCDGF [Phage-3774]
Phage binding ELISA signal, Anti-PSMA Fab (PSMA Fab (006 PSMA Fab) [2]): 1.33 | Phage binding ELISA signal, Anti-PSMA Fab in presence of PSMA (PSMA Fab (006 PSMA Fab) [3]): 0.0864

EQPACVPKWMCIGF [Phage-3750]
Phage binding ELISA signal, Anti-PSMA Fab (PSMA Fab [4]): 1.38 | Phage binding ELISA signal, Anti-PSMA Fab with PSMA antigen (PSMA Fab [5]): 0.0893

B9: Phage-3781 (peptide)
peptide: LVARCVPEWMCAGF
modifications: cysteine pairing not given here; also: displayed on phage as fusion to pIII, junction not given here
Phage binding ELISA signal, Anti-PSMA Fab (PSMA Fab (006 PSMA Fab) [2]): 1.33 | Phage binding ELISA signal, Anti-PSMA Fab in presence of PSMA (PSMA Fab (006 PSMA Fab) [3]): 0.102

B10: Phage-3765 (peptide, not shown: large carriers)
peptide: MVIECRPEWMCVGF
notes: as for B1
Phage binding ELISA signal, Anti-PSMA Fab (PSMA Fab (006 PSMA Fab) [1]): 1.35

ISPICRPAWMCHGF [Phage-3777]
Phage binding ELISA signal, Anti-PSMA Fab (PSMA Fab (006 PSMA Fab) [2]): 1.33 | Phage binding ELISA signal, Anti-PSMA Fab in presence of PSMA (PSMA Fab (006 PSMA Fab) [3]): 0.0873

VEVRCVPAWMCEGL [Phage-3783]
Phage binding ELISA signal, Anti-PSMA Fab (PSMA Fab (006 PSMA Fab) [2]): 1.33 | Phage binding ELISA signal, Anti-PSMA Fab in presence of PSMA (PSMA Fab (006 PSMA Fab) [3]): 0.0698

SVVKCVPSWMCTGF [Phage-3785]
Phage binding ELISA signal, Anti-PSMA Fab (PSMA Fab (006 PSMA Fab) [2]): 1.32 | Phage binding ELISA signal, Anti-PSMA Fab in presence of PSMA (PSMA Fab (006 PSMA Fab) [3]): 0.0729

B11: Phage-3761 (peptide, not shown: large carriers)
peptide: EVVACVPEWMCVGF
notes: as for B1
Phage binding ELISA signal, Anti-PSMA Fab (PSMA Fab (006 PSMA Fab) [1]): 1.36
